Experimental data as given in patent publication US5198424A, “Functionally active selectin-derived peptides” (Board of Regents of the University of Oklahoma, priority 1992, dated 1993).

Target: T1, GMP-140 (Homo sapiens, UniProt P16109)
T1 sequence (P16109 42-830): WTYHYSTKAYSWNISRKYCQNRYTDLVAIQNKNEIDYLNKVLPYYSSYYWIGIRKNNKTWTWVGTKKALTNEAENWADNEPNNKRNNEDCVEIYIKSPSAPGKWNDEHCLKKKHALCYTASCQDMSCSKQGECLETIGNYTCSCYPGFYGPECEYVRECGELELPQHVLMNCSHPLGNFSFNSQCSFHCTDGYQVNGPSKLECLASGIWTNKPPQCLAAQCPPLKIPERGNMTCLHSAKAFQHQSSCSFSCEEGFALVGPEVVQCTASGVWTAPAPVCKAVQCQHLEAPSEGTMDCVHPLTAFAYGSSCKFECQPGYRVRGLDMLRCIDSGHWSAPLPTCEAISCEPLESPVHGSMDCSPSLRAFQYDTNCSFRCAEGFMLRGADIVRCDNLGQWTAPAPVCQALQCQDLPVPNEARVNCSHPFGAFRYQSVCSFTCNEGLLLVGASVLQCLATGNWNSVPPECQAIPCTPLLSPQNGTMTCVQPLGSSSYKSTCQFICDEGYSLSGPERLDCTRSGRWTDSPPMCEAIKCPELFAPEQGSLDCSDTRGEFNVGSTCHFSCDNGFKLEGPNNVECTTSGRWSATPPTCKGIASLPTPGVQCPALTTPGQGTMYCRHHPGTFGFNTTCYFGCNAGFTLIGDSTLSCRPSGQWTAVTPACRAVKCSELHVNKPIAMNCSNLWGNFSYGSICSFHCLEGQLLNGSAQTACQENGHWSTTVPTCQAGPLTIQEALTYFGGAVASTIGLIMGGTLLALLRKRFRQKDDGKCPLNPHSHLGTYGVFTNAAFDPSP
Assay: Binding of stimulated platelets to neutrophils in the presence of Ca2+
Type: cell-based
Design: GMP-140 also mediates adhesion of neutrophils to stimulated platelets; endogenous in cells; host or cells: stimulated platelets

- binding of platelets to neutrophils: inhibited
B1: GMP-140: granule membrane protein 140, isolated from human platelet lysates by immunoaffinity and ion-exchange chromatography (protein, UniProt P16109 42-830, looked up)
P-selectin: T1 sequence (P16109 42-830)
